The subject of test [1] is MDA-MB-436-GFP breast cancer cell line. The test can be described thus: Apoptosis assay (caspase-3), MDA-MB-436-GFP cells. Format: cell-based. To be noted: 10 μg, FIG. 23. The protocol: (§1) The apoptosis assay was carried out using the Caspase-3 Assay kit (Sigma).
(§2) 2×10^7 cells wens taken for each treatment. The treatment groups were, antibody treated cells (for each antibody), anti-Fas antibody, antibody and adrenomedullin treated cells, blank and adrenomedullin treated cells. The positive control used was anti-Fas monoclonal antibody (MBL). The final concentration of antibodies used was […] and for anti-Fas antibody was 500 ng.
(§3) The treated cell suspension in 2 ml media were incubated for 3 hours at 37° C. in a 5% CO2 atmosphere.
(§4) The assay buffer and lysis buffer given in the kit was prepared using the given 17 megohm water as per the standard instructions given in the protocol. After 3 hours of incubation, the cells were centrifuged at 600 g for 5 minutes at 4° C. The supernatant was discarded and the cells were resuspended in 1 ml PBS. The cells were once again centrifuged using the above mentioned conditions and the supernatant was discarded. The cell pellet was resuspended in 200 μl 1× lysis buffer and incubated on ice for 20 minutes. The lysed cells were centrifuged at 20,000 g for 15 minutes at 4° C. The cell lysine were then laid out in a 96 well flat bottomed plate as shown in FIG. 6 and incubated overnight. The absorbance was read at 405 nm (Spectramax M5e), using the software Softmax™ Pro 5.2.36.

The test system of test [2] is U-87 glioblastoma cancer cell line. Nature of the test: Apoptosis assay (caspase-3), U-87 cells. Format: cell-based. The settings on record: U-87, 10 μg; FIG. 22. The protocol: as §1
U-87 cells were prepared under standard conditions. A cell solution of 2×10^7 cells was made up in 2 ml of media were dispensed into polypropylene tubes.
as §2, §3
as §4, with “The cell lysine were then laid out in a 96 well flat bottomed plate as shown in FIG. 6 and incubated overnight.” left out

The subject of test [3] is MDA-MB-436-GFP breast cancer cell line. The test can be described thus: MTT Cell Proliferation assay, MDA-MB-436-GFP breast cancer cell line. Format: cell-based. To be noted: after 8 days of culture, FIG. 17. The protocol: (§5) Two groups of proliferation studies were carried out for each antibody. One group was used to study the effect on proliferation by the antibody in presence of endogenous adrenomedullin, while the other group was used to the study the effects of antibody in presence of exogenously added adrenomedullin. Varying concentrations of antibody were prepared in PBS to result in final well concentrations of 10 μg, 1 μg, 100 ng, 10 ng, 1 ng, 100 pg, 10 pg and 1 pg. Six replicates of each concentration of each antibody was carried out. This dose range was used in both groups. Adrenomedullin was added to the appropriate group to a final well concentration of 200 nM. 5-FluoroUracil (Fluka) was used as a positive control (100 mM) for the reduction in proliferation. PBS controls were also prepared. The plates were then incubated under standard conditions. Replacement and re-dosing of antibody and controls was carried out every 2 days. Mouse anti-GST antibody concentration responses were also calculated the similar way since it was the antibody control for the experiment
(§6) In order to check for consistency of the cells seeded, a 12-24 hours study was performed. Further time points were carried out at 2, 4, 6 and 8 days. […] The plate was read for absorbance at 595 nm (Spectramax M5e), using the software Softmax™ Pro 5.2.X 100035.

The test system of test [4] is U-87 glioblastoma cell line. The test can be described thus: MTT Cell Proliferation assay, U-87 glioblastoma cell line. To be noted: U-87, 10 μg dose, after 8 days of culture; FIG. 14. Format: cell-based. The protocol:
The cell culture was carried out under aseptic conditions on Nunclon™ treated tissue culture plastics. The U-87 glioblastoma cells (ATCC noHTB-14) used for this project were cultured in standard EMEM (Earle's Minimum Essential Medium) media (Gibco) with 10% Fetal Calf Serum (Gibco) and 5% Penicillin/Streptomycin antibiotic (Sigma). The frozen cells were thawed at 37° C. for 2 minutes. The cells were then immediately transferred to 75 cm2 flask with 10 ml of media. The culture was incubated at 37° C. with 5% CO2 to attain confluency. The media was changed every three days and the cells were then subcultured after reaching 80-90% confluency. […]
The U87 glioblastoma cells were grown under standard conditions (as mentioned above). The total number of cells were counted using a haemocytometer (Hawksley) and the concentration was calculated using the following equation: […]
Two groups of proliferation studies were carried out for each antibody. […] Mouse anti-GST antibody concentration responses were also calculated the similar way since it was the antibody control for the experiment
In order to check for consistency of the cells seeded, a 12-24 hours study was performed. […] The plate was read for absorbance at 595 nm (Spectramax M5e), using the software Softmax™ Pro 5.2.X 100035.
The proliferation/survival of SW-13 and U87 (Glioblastoma cell line) cells was determined using the MTT assay.
In general terms: Tetrazolium assays rely on reduction of a dye to a coloured formazan, in cell work by metabolically active cells.

Test [5] has as its system PC-3 prostate cancer cell line. Nature of the test: MTT Cell Proliferation assay, PC-3 prostate cancer cell line. Format: cell-based. The settings on record: PC-3, 10 μg, after 8 days of culture, FIG. 19. As for the experimental part:
as §5, §6

Test [6] relates to MDA-MB-436-GFP breast cancer cells. Nature of the test: MDA-MB-436-GFP xenograft in CD1 nude mice. To be noted: right flank of CD1 nude mice, 6 weeks. Format: in vivo, CD1 nude (nu/nu) mice. As for the experimental part:
MDA-MB-436-GFP cells were cultured in RPMI media containing penicillin (50 U/ml), streptomycin (50 μg/ml), glutamine (1 mg/ml), and supplemented with 10% fetal bovine serum. Cells were cultured under a humid 5% CO2/95% air atmosphere, and fed with fresh medium every 2 days, being routinely monitored for mycoplasma contamination. Cells growing exponentially were harvested using Trypsin EDAT solution. All culture media components were purchased from Invitrogen Life Technologies
Animal work was performed in the animal facility of the University of Sheffield. Male 4-to-5-week-old CD1 nude (nu/nu) mice were used. Mice were acclimated and housed in sterile cages in groups of four or less under laminar flow hoods in a temperature-controlled room with a 12-hour light/12-hour dark schedule, and fed autoclaved chow and water ad libitum.
CD1 nude (nu/nu) nude mice were implanted with MDA-MB-436-GFP breast cancer cells. For the cell implantations, MDA-MB-436-GFP cells, grown in culture, were washed with PBS, dispersed in a 0.05% solution of trypsin, and resuspended. […] Tumors were measured with a digital venier calliper (Site), and tumour volumes were determined using the formula width×length×height×0.52 (for ellipsoid form), these measurement were taken twice weekly. […]

In test [7] the test system is HCT116 colon cancer cell line. Nature of the test: MTT Cell Proliferation assay, HCT116 colon cancer cell line. Format: cell-based. The settings on record: HCT116, 10 μg, after 8 days of culture; FIG. 21. The protocol:
as §5, §6

B1: JF2: monoclonal anti-RAMP-3 antibody, IgG, IgG1 subtype (antibody, V domains shown)
VH: QVQLVESGGGVVQPGKSLRLSCAASGFTFSSYGMYWVRQAPGKGLEWVAVISYDGSNKYYADSVKGRFTISRDNSKNTLYLQMNSLRAEDTAVYNCAKEMRYGSGRKAIKYYYGMDVWGQGTTVTVSSASTKGPSVFPLA
VL: DIQMTQSPSSLSASLGERVSLTCRASQDIGSNLNWLQQEPDGTIKRLIYATSSLDSGVPKRFSGSRSGSDYSLTISSLESEDFVDYYCLQYASSPPTFGGGTKLEIKRADAAPTVSIFPPSSKLG
As to B1, the “levels of caspase-3 (apoptosis), significance” value in test [1] is on record as “only antibody JB3 showed a significant increased”. In addition, in test [2], the “increase levels of caspase-3” value worked out at 26%. Moreover, the reduction in proliferation in test [3] (10 μg (greatest reduction)) was found to be 12%; in test [4], 40%; in test [5] (in the absence of exogenously added adrenomedullin) it was 22%; in test [5] (in the presence of adrenomedullin), 37%. For the same molecule, the “reduction in proliferation compared to controls” value is listed as “significant reduction in proliferation” in test [3] (doses 1 μg and 10 μg); “no statistically significant reduction in proliferation” in test [7]. The tumour volume entry in test [6] (versus control groups, FIG. 24) is “rates of growth within the treatment groups are considerably slower”. Besides, the tumour weights entry in test [6] (calculated back using the volumes of tumours, FIG. 25) is recorded as “still remain below control groups”.

(Values after patent publication US8389237B2, “Antibodies against RAMP3” (Medella Therapeutics Limited, priority 2007, dated 2013).)
